Experimental data reported in patent publication US20230272056A1 (Merck Sharp & Dohme, published 2023).
Changes are numbered by the printed parent chain. Names and notes keep the numbering of the source.

B1: VH D52Y (77BIT) (Fab, V domains shown)
VH: EVQLVQSGAEVKKPGASVKVSCKASGYTFTSYWMHWVRQAPGQGLEWMGRIYPQSGGIKYAQKFQGRATLTVDTSTSTAYMELSRLRSDDTAVYYCARWDYGGYFDVWGQGTLVTVSS
VL: DIQMTQSPSSLSASVGDRVTITCRASQDITNYLNWYQQKPGKAVKLLIYYTSRLHSGVPSRFSGSGSGTDYTLTISSLQPEDFATYFCQQGDTLPWTFGQGTKLEIKR
B2: VH G99Y (66BIT) (Fab, V domains shown)
VH: B1 VH with Y52D, G103Y
VL: B1 VL
B3: VH M34Y (72BIT) (Fab, V domains shown)
VH: B1 VH with M34Y, Y52D
VL: B1 VL
B4: VH D96Y (64BIT) (Fab, V domains shown)
VH: B1 VH with Y52D, D100Y
VL: B1 VL
B5: VH I57Y (83BIT) (Fab, V domains shown)
VH: B1 VH with Y52D, I58Y
VL: B1 VL
B6: VH S31Y (70BIT) (Fab, V domains shown)
VH: B1 VH with S31Y, Y52D
VL: B1 VL
B7: VL L33Y (46BIT) (Fab, V domains shown)
VH: B1 VH with Y52D
VL: B1 VL with L33Y
B8: VH K58Y (84BIT) (Fab, V domains shown)
VH: B1 VH with Y52D, K59Y
VL: B1 VL
B9: VH F29Y (68BIT) (Fab, V domains shown)
VH: B1 VH with F29Y, Y52D
VL: B1 VL
B10: VL I29Y (43BIT) (Fab, V domains shown)
VH: B1 VH with Y52D
VL: B1 VL with I29Y
B11: VH P52aY (78BIT) (Fab, V domains shown)
VH: B1 VH with Y52D, P53Y
VL: B1 VL
B12: VL D28Y (42BIT) (Fab, V domains shown)
VH: B1 VH with Y52D
VL: B1 VL with D28Y
B13: VL D92Y (57BIT) (Fab, V domains shown)
VH: B1 VH with Y52D
VL: B1 VL with D92Y
B14: VH I51Y (76BIT) (Fab, V domains shown)
VH: B1 VH with I51Y, Y52D
VL: B1 VL
B15: VH T30Y (69BIT) (Fab, V domains shown)
VH: B1 VH with T30Y, Y52D
VL: B1 VL
B16: VH G98Y (65BIT) (Fab, V domains shown)
VH: B1 VH with Y52D, G102Y
VL: B1 VL
B17: VL L54Y (51BIT) (Fab, V domains shown)
VH: B1 VH with Y52D
VL: B1 VL with L54Y
B18: VH T28Y (67BIT) (Fab, V domains shown)
VH: B1 VH with T28Y, Y52D
VL: B1 VL
B19: VL L94Y (59BIT) (Fab, V domains shown)
VH: B1 VH with Y52D
VL: B1 VL with L94Y
B20: VH R50Y (75BIT) (Fab, V domains shown)
VH: B1 VH with R50Y, Y52D
VL: B1 VL
notes: also called VH RSOY (75BIT)
B21: VH W95Y (88BIT) (Fab, V domains shown)
VH: B1 VH with Y52D, W99Y
VL: B1 VL
B22: VH W33Y (71BIT) (Fab, V domains shown)
VH: B1 VH with W33Y, Y52D
VL: B1 VL
B23: VL N31Y (45BIT) (Fab, V domains shown)
VH: B1 VH with Y52D
VL: B1 VL with N31Y
B24: VL G91Y (56BIT) (Fab, V domains shown)
VH: B1 VH with Y52D
VL: B1 VL with G91Y
B25: VH G56Y (82BIT) (Fab, V domains shown)
VH: B1 VH with Y52D, G57Y
VL: B1 VL
B26: VH S54Y (80BIT) (Fab, V domains shown)
VH: B1 VH with Y52D, S55Y
VL: B1 VL
B27: VH Q53Y (79BIT) (Fab, V domains shown)
VH: B1 VH with Y52D, Q54Y
VL: B1 VL
B28: VL A25Y (39BIT) (Fab, V domains shown)
VH: B1 VH with Y52D
VL: B1 VL with A25Y
B29: VL N34Y (47BIT) (Fab, V domains shown)
VH: B1 VH with Y52D
VL: B1 VL with N34Y
B30: VH G55Y (81BIT) (Fab, V domains shown)
VH: B1 VH with Y52D, G56Y
VL: B1 VL
B31: VL Q27Y (41BIT) (Fab, V domains shown)
VH: B1 VH with Y52D
VL: B1 VL with Q27Y
B32: VL P95Y (60BIT) (Fab, V domains shown)
VH: B1 VH with Y52D
VL: B1 VL with P95Y
B33: VH H35Y (73BIT) (Fab, V domains shown)
VH: B1 VH with H35Y, Y52D
VL: B1 VL
B34: VL H55Y (52BIT) (Fab, V domains shown)
VH: B1 VH with Y52D
VL: B1 VL with H55Y

Each binder was assayed against T1, human LAP-TGFB1 Fc fusion (human) (assay: BLI off-rate screen).
T1 construct: also called human LAP-TGFβ1-Fc; human LAP-TGFβ-Fc isoform 1
T1 sequence (chain, as listed by the source limits assumed): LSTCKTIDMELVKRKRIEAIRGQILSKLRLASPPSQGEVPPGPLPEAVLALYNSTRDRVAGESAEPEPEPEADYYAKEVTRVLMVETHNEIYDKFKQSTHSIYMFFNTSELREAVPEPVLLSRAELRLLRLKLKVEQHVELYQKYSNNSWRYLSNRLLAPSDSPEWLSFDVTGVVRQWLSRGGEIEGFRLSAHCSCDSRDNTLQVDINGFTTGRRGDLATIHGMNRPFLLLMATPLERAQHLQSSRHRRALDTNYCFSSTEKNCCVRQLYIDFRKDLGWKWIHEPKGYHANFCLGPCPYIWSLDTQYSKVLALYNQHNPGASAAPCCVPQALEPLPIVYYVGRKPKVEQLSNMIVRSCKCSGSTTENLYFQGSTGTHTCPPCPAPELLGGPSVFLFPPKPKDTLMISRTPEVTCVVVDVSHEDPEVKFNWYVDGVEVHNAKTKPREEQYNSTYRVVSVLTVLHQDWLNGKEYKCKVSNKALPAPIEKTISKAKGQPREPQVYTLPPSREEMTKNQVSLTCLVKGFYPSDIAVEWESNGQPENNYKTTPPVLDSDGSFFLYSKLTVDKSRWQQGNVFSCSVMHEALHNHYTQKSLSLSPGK
Procedure: The Fab mutants including a positive control, 20E6 Fab, and a negative control Fab (Molecular Innovations, catalog HU-FAB-4510) were diluted to 200 nM in assay buffer and loaded to FAB2G sensors for 180 seconds followed by a one-hour incubation at room temperature in assay buffer to equilibrate the tips. The Fab loaded sensors were assessed for binding with 100 nM human LAP-TGFβ for 180 seconds followed by a 180 second dissociation phase in assay buffer on a ForteBio HTX (software version 9.0.0.66). Non-specific binding to the negative control Fab was subtracted and the binding sensorgrams were aligned to the start of the association phase on the X and Y axis. The Fab binding was fit with the 1:1 binding model, dissociation phase only, with local fitting using ForteBio Data Analysis 9.0 software.
Twenty-three variants containing a single tyrosine substitution in the light chain CDRs (at one of amino acid positions 24-31, 33, 34, 51-56, and 89-95 according to Kabat numbering scheme) and 21 similar heavy chain CDR variants (at amino acids positions 28-31, 33-35, 50-58 including 52a, 95, 96, 98, and 99 according to Kabat numbering scheme) were generated according to FIG. 1 and listed in Table 6 and their interactions with human LAP-TGFb1 were analyzed by ForteBio interferometry. […] In those sequences the VL is correct, even though these sequences are from the heavy chain. Thus, the VL_X ##Y refers to the position of the tyrosine mutation within the antibody, regardless of whether the sequence is a heavy or light chain.

Row | Binding response [nm] | binding result | Fold change [fold] | koff [s⁻¹] | Binder
1 | 0.042 | no binding (tested: 100 nM antigen) | – | – | B1
2 | 0.055 | – | 0.9 | 0.0476 | B2
3 | 0.623 | – | 1 | 0.0414 | B3
4 | 0.102 | – | 0.6 | 0.0746 | B4
5 | 0.555 | – | 1 | 0.043 | B5
6 | 0.696 | – | 1.2 | 0.0361 | B6
7 | 0.095 | – | 1 | 0.0413 | B7
8 | 0.339 | – | 1.3 | 0.0327 | B8
9 | 0.597 | – | 1.3 | 0.0336 | B9
10 | 0.071 | – | 1.6 | 0.0264 | B10
11 | 0.566 | – | 0.9 | 0.0454 | B11
12 | 0.207 | – | 1.3 | 0.0318 | B12
13 | 0.046 | no binding (tested: 100 nM antigen) | – | – | B13
14 | 0.6 | – | 1.1 | 0.0379 | B14
15 | 0.372 | – | 1.2 | 0.0365 | B15
16 | 0.037 | no binding (tested: 100 nM antigen) | – | – | B16
17 | 0.299 | – | 1 | 0.0405 | B17

Row | Binding response [nm] | binding result | Fold change [fold] | koff [s⁻¹] | Binder
18 | 0.326 | – | 1.2 | 0.0343 | B18
19 | 0.308 | – | 0.7 | 0.0571 | B19
20 | 0.324 | – | 0.9 | 0.0445 | B20
21 | 0.638 | – | 1 | 0.0425 | B21
22 | 0.77 | – | 1.8 | 0.023 | B22
23 | 0.344 | – | 1.8 | 0.0241 | B23
24 | 0.044 | no binding (tested: 100 nM antigen) | – | – | B24
25 | 0.569 | – | 1 | 0.0436 | B25
26 | 0.588 | – | 1 | 0.0406 | B26
27 | 0.625 | – | 1 | 0.0416 | B27
28 | 0.043 | no binding (tested: 100 nM antigen) | – | – | B28
29 | 0.221 | – | 1 | 0.0436 | B29
30 | 0.542 | – | 1.2 | 0.036 | B30
31 | 0.427 | – | 1.8 | 0.0229 | B31
32 | 0.015 | no binding (tested: 100 nM antigen) | – | – | B32
33 | 0.334 | – | 0.9 | 0.0471 | B33
34 | 0.265 | – | 1.1 | 0.0385 | B34
